B1: GFP-CAMSAP3 (natural protein, UniProt Q80VC9 1-1252, looked up)
chain: MVEAAPAGSGPLRRTFLVPEIKSLDQYDFSRAKAAASLAWVLRAAFGGAEHVPPELWEPFYTDQYAQEHVKPPVTRLLLSAELYCRAWRQALPQLEPSPSPSALLALLARRGTVPSLPEHPVREADLKHQPILMGAHLAVIDALMVAFSFEWTKTLPGPLALSSLEHKLLFWVDTTVRRLQEKTEQEAAQRASPAAPLDGASPAQPSIRYRKDRAIARRAPCFPNVTTLQDLASGAALAATIHCYCPQLLRLEEVCLKDPMSVADSLYNLQLVQDFCASHLPRGCPLSLEDLLYVPPPLKVNLVVLLAEMYMCFEVLKPDFVQAKDLPDGHAVSPRNTETVPSQNNSGSSSPVFNFRHPLLSPGGPQSPLRGSTGSLKSSPSMSHMEALGKAWNRQLSRPLSQAVSFSTPFGLDSDVDVVMGDPVLLRSVSSDSLGPPRPVSTSSRNSAQPAPESGDLPTIEEALQIIHSAEPRLLPDGAADGSFYLHSPEGLSKPPLSPYPPEGASKPLSDRLNKAPIYISHPENPSKSSPCSTGEILKPPPPSEGSPKAVASSPAANNSEVKMTSFAERKKQLVKAEAESGLGSPTSTPVAPEALSSEMSELGARLEEKRRAIEAQKRRIEAIFAKHRQRLGKSAFLQVQPREAAGEAEEEAELGSVPGGERPAGEGQGEPSLRHKSVTFSPDLGPVPPEGLGDYNRAVSKLSAALSSLQRDMQRLTDQQQRLLAPPEAPGPAPPPAAWVIPGPATGPKAASPSPARRAPAARRSPGPGPSPTPRSPKHARPAELKLAPLTRVLTPPHDVDSLPHLRKFSPSQVPVQTRSSILLSEGTPPEEPTTKPALIEIPLASLGEPAADEEGDGSPPGAEDSLEEEASSEGEPRSGLGFFYKDEDKPEDEMAQKRASLLERQQRRVEEARRRKQWQEAEKEQKREEAARLAQEAPGLAFTTPVVASAAPVATLAPTTRAMAPAEEEVGPRRGDFTRLEYERRAQLKLMDDLDKVLRPRASGTGGPGRGGRRATRPRSGCCDDSALARSPARGLLGSRLSKVYSQSTLSLSTVANEAPNNLGVKRPTSRAPSPSGLMSPSRLPGSRERDWENGSNASSPASVPEYTGPRLYKEPSAKSNKFIIHNALSHCCLAGKVNEPQKNRILEEIEKSKANHFLILFRDSSCQFRALYTLSGETEELSRLAGYGPRTVTPAMVEGIYKYNSDRKRFTQIPAKTMSMSVDAFTIQGHLWQSKKPTTPKKGGGTPK
notes: CAMSAP3 (Nezha), full length; also called Nezha; CAMSAP3 full-length; source: Sf9 cells, purified
B2: GFP-CAMSAP3 944F (domain or fragment, UniProt Q80VC9 944-1252, looked up)
chain: AFTTPVVASAAPVATLAPTTRAMAPAEEEVGPRRGDFTRLEYERRAQLKLMDDLDKVLRPRASGTGGPGRGGRRATRPRSGCCDDSALARSPARGLLGSRLSKVYSQSTLSLSTVANEAPNNLGVKRPTSRAPSPSGLMSPSRLPGSRERDWENGSNASSPASVPEYTGPRLYKEPSAKSNKFIIHNALSHCCLAGKVNEPQKNRILEEIEKSKANHFLILFRDSSCQFRALYTLSGETEELSRLAGYGPRTVTPAMVEGIYKYNSDRKRFTQIPAKTMSMSVDAFTIQGHLWQSKKPTTPKKGGGTPK
notes: source: Sf9 cells, purified

Target: the molecule itself
Assay: SEC-MALS; static light detection of the purified GFP-tagged protein; dimer from the mass of the primary peak

| Protein | stoichiometry N |
| --- | --- |
| B1 | 2 |
| B2 | 2 |

— publication doi:10.1101/2024.05.31.596772, “CAMSAP3 Forms Dimers via its α-helix Domain that Directly Stabilize Non-centrosomal Microtubule Minus Ends” (bioRxiv, 2024)
